According to patent US20220282217A1 (BIONTECH US, published 2022):

B1: PLSDLLLEML (peptide)
peptide: PLSDLLLEML
notes: also called E5R1, Y537S (so in the source); ESR1, Y537S
B2: … (peptide)
peptide: LQMDFLVHPA
notes: likely a print error; also called APC, VHPA
B3: ALEEKKGNYV (peptide)
peptide: ALEEKKGNYV
notes: also called EGFRvIII (internal deletion)

Target: T1, HLA class I molecule A02.01
T1 construct: Purified MHC class I complex; also called HLA-A02:01
Assay: pMHC-I dissociation half-life, 125I-b2m
Procedure: (§1) Briefly, synthetic genes encoding biotinylated MHC-I heavy and light chains are expressed in E. coli and purified from inclusion bodies using standard methods. […] These reactions are carried out in streptavidin coated microplates to bind the biotinylated MHC-I heavy chains to the surface and allow measurement of radiolabeled light chain to monitor complex formation. Dissociation is initiated by addition of higher concentrations of unlabeled light-chain and incubation at 37° C. Stability is defined as the length of time in hours it takes for half of the complexes to dissociate, as measured by scintillation counts.

Row | Binder | Stability (T1/2 (h))
1 | LLPIPPLSPS (also called MYC, T58I) | 0 h

Target: HLA-A02.01 (human)
Assay: pMHC-I complex dissociation at 37 C, 125I-b2m, half-life
Procedure: as §1

Row | Binder | Stability (T1/2 (h))
2 | FILMELMAGG (also called ALK, L1196M) | 0 h
3 | VLLSVHLIV (also called APC, AVEW) | 11 h
4 | KVLQMDFLV (also called APC, VHPA) | 6.4 h
5 | IIIEFMTYG (also called ABL1, T315I) | 0 h
6 | IIIEFMTYGN (also called ABL1, T315I) | 0 h
7 | PLYGLLLEM (also called ESR1, D538G) | 0.7 h
8 | ILMELMAGGD (also called ALK, L1196M) | 0 h
9 | NVVPLYGLL (also called ESR1, D538G) | 0 h
10 | TQISSATEYL (also called ABL1, M351T) | 0 h
11 | LMELMAGGDL (also called ALK, L1196M) | 8.9 h
12 | PLCDLLLEML (also called ESR1, Y537C) | 0.9 h
13 | B1 | 0 h
14 | PLNDLLLEML (also called ESR1, Y537N) | 0 h
15 | B2 | 1.5 h
16 | NVVPLCDLL (also called ESR1, Y537C) | 0 h
17 | NVVPLSDLL (also called ESR1, Y537S) | 0 h
18 | NVVPLNDLL (also called ESR1, Y537N) | 0 h

Row | Binder | Stability (T1/2 (h))
19 | IIEFMTYGNL (also called ABL1, T315I) | 0 h
20 | GLLLEMLDA (also called ESR1, D538G) | 0.4 h
21 | KLGGGQHGEV (also called ABL1, Y253H) | 0.4 h
22 | VLTVTSTDV (also called FGFR3: TACC3) | 1.1 h
23 | LIMQLMPFGC (also called EGFR, T790M) | 0.4 h
24 | B3 | 0 h
25 | CLADVLLSV (also called APC, AVEW) | 24 h
26 | PLCDLLLEM (also called ESR1, Y537C) | 0.8 h
27 | PLSDLLLEM (also called ESR1, Y537S) | 2.7 h
28 | PLNDLLLEM (also called ESR1, Y537N) | 4.2 h
29 | GVYTFLPST (also called ESR1, S463P) | 1.3 h
30 | ILMELMAGG (also called ALK, L1196M) | 0.5 h
31 | NVVPLCDLLL (also called ESR1, Y537C) | 0 h
32 | NVVPLNDLLL (also called ESR1, Y537N) | 0 h
33 | NVVPLSDLLL (also called ESR1, Y537S) | 0 h
34 | YIIIEFMTYG (also called ABL1, T315I) | 0 h

Target: T1, HLA class I molecule A02.01
Assay: competition with radiolabeled reference peptide on purified MHC I
Procedure: (§2) Peptides were incubated at varying concentrations with these complexes for 2 days, and the amount of remaining radiolabeled peptide bound to […] was measured using size exclusion gel-filtration.

Row | Binder | IC50
35 | LIVSRTLLLV (also called MSH3(-1)) | 10900 nM
36 | ALWECSLPQA (also called MSH3(-1)) | 9 nM
37 | LLPEDTPPL (also called MSH6(+1)) | 2.8 nM
38 | RLWHLLLQV (also called MLL2, . . ; LSPH) | 1.3 nM
39 | ITAFFLLDI (also called NDUFC2 (-KCDT14)(-1)) | 78.7 nM
40 | LQVTQTSFAL (also called MLL2, . . ; LSPH) | 718 nM
41 | FLLALWECS (also called MSH3(-1)) | 93.2 nM
42 | LLQVTQTSFA (also called MLL2, . . ; LSPH) | 677 nM
43 | IVSRTLLLV (also called MSH3(-1)) | 12.7 nM
44 | YITAFFLLDI (also called NDUFC2 (-KCDT14)(-1)) | 64.5 nM
45 | RLWHLLLQVT (also called MLL2, . . ; LSPH) | 50.9 nM
46 | AIQPVLWTT (also called GATA3 . . ; CSNH) | 8.1 nM
47 | ALAPTLTHML (also called MLL2, . . ; LSPH) | 39 nM
48 | VLPEPHLAL (also called GATA3 . . ; CSNH) | 16 nM
49 | ALAPTLTHM (also called MLL2, . . ; LSPH) | 59 nM
50 | ILLPEDTPPL (also called MSH6(+1)) | 6.7 nM
51 | CLIVSRTLLL (also called MSH3(-1)) | 2010 nM
52 | LLDILDTAGL (also called KRAS, Q61L) | 716 nM
53 | ITAFFFCWI (also called NDUFC2 (-KCDT14)(+1)) | 7490 nM

Target: HLA-A02.01 (human)
Assay: competition vs radiolabeled reference peptide on purified MHC I, gel filtration
Procedure: as §2

Row | Binder | IC50
54 | FILMELMAGG (also called ALK, L1196M) | 1580 nM
55 | VLQRFRFTHV (also called β2M, . . ; SQIS) | 107 nM
56 | ILIRKAMTV (also called EPHB2(-1)) | 19.5 nM
57 | VLLSVHLIV (also called APC, AVEW) | 72 nM
58 | KVLQMDFLV (also called APC, VHPA) | 11 nM
59 | IIIEFMTYG (also called ABL1, T315I) | 779 nM
60 | PLYGLLLEM (also called ESR1, D538G) | 640 nM
61 | ILMELMAGGD (also called ALK, L1196M) | 3450 nM
62 | NVVPLYGLL (also called ESR1, D538G) | 10500 nM
63 | TQISSATEYL (also called ABL1, M351T) | 2640 nM
64 | LMELMAGGDL (also called ALK, L1196M) | 311 nM
65 | AQAGVQWRSL (also called C15ORF40(+1)) | 670 nM
66 | PLCDLLLEML (also called ESR1, Y537C) | 2010 nM
67 | B1 | 6470 nM
68 | PLNDLLLEML (also called ESR1, Y537N) | 12000 nM
69 | B2 | 68 nM
70 | SVCFFFFCYI (also called CNOT1(-1)) | 520 nM
71 | NVVPLCDLL (also called ESR1, Y537C) | 3030 nM
72 | NVVPLSDLL (also called ESR1, Y537S) | 916 nM
73 | NVVPLNDLL (also called ESR1, Y537N) | 2900 nM
74 | IIEFMTYGNL (also called ABL1, T315I) | 9700 nM
75 | KQWSSVTSL (also called EIF2B3(-1)) | 26.5 nM

Row | Binder | IC50
76 | GLLLEMLDA (also called ESR1, D538G) | 558 nM
77 | FKLFSCLSFL (also called C15ORF40(+1)) | 663 nM
78 | FFFSVIFST (also called CNOT1(+1)) | 4560 nM
79 | KLGGGQHGEV (also called ABL1, Y253H) | 387 nM
80 | GLSISCTTL (also called β2M, . . ; MPAV) | 114 nM
81 | VLTVTSTDV (also called FGFR3: TACC3) | 295 nM
82 | B3 | 141 nM
83 | CLADVLLSV (also called APC, AVEW) | 219 nM
84 | FLSSWDYRRM (also called C15ORF40(+1)) | 324 nM
85 | PLCDLLLEM (also called ESR1, Y537C) | 602 nM
86 | PLSDLLLEM (also called ESR1, Y537S) | 404 nM
87 | PLNDLLLEM (also called ESR1, Y537N) | 151 nM
88 | FFFETKSCSV (also called C15ORF40(+1)) | 61.2 nM
89 | VQWRSLGSL (also called C15ORF40(+1)) | 4730 nM
90 | GVYTFLPST (also called ESR1, S463P) | 779 nM
91 | ALFFFFFET (also called C15ORF40(+1)) | 471 nM
92 | ILMELMAGG (also called ALK, L1196M) | 223 nM
93 | NVVPLCDLLL (also called ESR1, Y537C) | 1370 nM
94 | NVVPLNDLLL (also called ESR1, Y537N) | 4190 nM
95 | NVVPLSDLLL (also called ESR1, Y537S) | 741 nM
96 | MSVCFFFFSV (also called CNOT1(+1)) | 1710 nM
97 | YIIIEFMTYG (also called ABL1, T315I) | 186 nM
